Measurements taken from article PMC4374139.

How the values were obtained:
[1] = molecular target: TopBP1 (UniProt Q92547); test: GFP-BLM pull-down, western blot; conditions: reference: wild type; sites S304
[2] = molecular target: TopBP1 BRCT5 (UniProt Q92547); test: GST-BRCT5 pull-down of SFB-BLM from lysate; conditions: reference: wild type; sites S304
[3] = molecular target: TopBP1 (UniProt Q92547); test: GFP-BLM pull-down, western blot; conditions: reference: wild type; sites S304; remark: listed apart in the source
[4] = molecular target: TopBP1 (UniProt Q92547); test: GFP-BLM pull-down, western blot; conditions: reference: wild type; sites S304; remark: listed apart in the source
[5] = molecular target: TopBP1 BRCT5 (UniProt Q92547); test: biotin-peptide (Ser304) pull-down of purified GST-BRCT5; conditions: reference: nonphosphorylated Ser304 peptide; sites S304
[6] = molecular target: TopBP1 (UniProt Q92547); test: biotin-peptide streptavidin pull-down from nuclear extract; conditions: reference: nonphosphorylated peptide; sites S304
[7] = molecular target: TopBP1 BRCT domains 4 and 5 (UniProt Q92547); test: biotin-peptide pull-down of purified GST-BRCT4-5; conditions: reference: nonphosphorylated peptide; sites S304

BLM (from UniProt P54132) S304A
binding against the reference [1]: weaker
binding against the reference [2]: weaker
binding against the reference [3]: lost
binding against the reference [4]: weaker

BLM (from UniProt P54132) pS304 peptide
binding against the reference [5]: gained

BLM 297-311 (from UniProt P54132) pS304 peptide
binding against the reference [6]: gained
binding against the reference [7]: gained
